Patent publication US20240270846A1 (published 2024)
Positions count from the first letter of the chain named. Names may count otherwise.

B1: CE115HA000 D101R one-arm antibody (antibody, human IgG1, kappa, L234A L235A, N297A, name in Kabat numbering)
heavy: QVQLVESGGGVVQPGRSLRLSCAASGFTFSNAWMHWVRQAPGKGLEWVAQIKAKSNNYATYYAESVKGRFTISRDDSKNSLYLQMNSLKTEDTAVYYCRYVHYGAYYGVRAWGQGTTVTVSSASTKGPSVFPLAPSSKSTSGGTAALGCLVKDYFPEPVTVSWNSGALTSGVHTFPAVLQSSGLYSLSSVVTVPSSSLGTQTYICNVNHKPSNTKVDKKVEPKSCDKTHTCPPCPAPEAAGGPSVFLFPPKPKDTLMISRTPEVTCVVVDVSHEDPEVKFNWYVDGVEVHNAKTKPREEQYASTYRVVSVLTVLHQDWLNGKEYKCKVSNKALPAPIEKTISKAKGQPREPQVYTLPPSRCELTKNQVSLSCAVKGFYPSDIAVEWESNGQPENNYKTTPPVLDSDGSFFLVSKLTVDKSRWQQGNVFSCSVMHEALHNHYTQKSLSLSPDYKDDDDK
chain: EPKSSDKTHTCPPCPAPELLGGPSVFLFPPKPKDTLMISRTPEVTCVVVDVSHEDPEVKFNWYVDGVEVHNAKTKPREEQYNSTYRVVSVLTVLHQDWLNGKEYKCKVSNKALPAPIEKTISKAKGQPREPQVCTLPPSRDELTKNQVSLWCLVKGFYPSDIAVEWESNGQPENNYKTTPPVLDSDGSFFLYSKLTVDKSRWQQGNVFSCSVMHEALHNRYTQKSLSLSP
light: DIVMTQSPLSLPVTPGEPASISCRSSQSLVHSNRNTYLHWYQQKPGQAPRLLIYKVSNRFSGVPDRFSGSGSGTDFTLKISRVEAEDVGVYYCGQGTQVPYTFGQGTKLEIKRTVAAPSVFIFPPSDEQLKSGTASVVCLLNNFYPREAKVQWKVDNALQSGNSQESVTEQDSKDSTYSLSSTLTLSKADYEKHKVYACEVTHQGLSSPVTKSFNRGEC
notes: one-arm antibody
B2: CE115HA000 D101S one-arm antibody (antibody, human IgG1, kappa, L234A L235A, N297A, name in Kabat numbering)
heavy: B1 heavy with R110S
chain: B1 chain
light: B1 light
notes: one-arm antibody
B3: CE115HA000 D101T one-arm antibody (antibody, human IgG1, kappa, L234A L235A, N297A, name in Kabat numbering)
heavy: B1 heavy with R110T
chain: B1 chain
light: B1 light
notes: one-arm antibody
B4: CE115HA000 D101V one-arm antibody (antibody, human IgG1, kappa, L234A L235A, N297A, name in Kabat numbering)
heavy: B1 heavy with R110V
chain: B1 chain
light: B1 light
notes: one-arm antibody
B5: CE115HA000 D101Y one-arm antibody (antibody, human IgG1, kappa, L234A L235A, N297A, name in Kabat numbering)
heavy: B1 heavy with R110Y
chain: B1 chain
light: B1 light
notes: one-arm antibody
B6: CE115HA000 G65D one-arm antibody (antibody, human IgG1, kappa, L234A L235A, N297A, name in Kabat numbering)
heavy: B1 heavy with G68D, R110D
chain: B1 chain
light: B1 light
notes: one-arm antibody
B7: CE115HA000 G65E one-arm antibody (antibody, human IgG1, kappa, L234A L235A, N297A, name in Kabat numbering)
heavy: B1 heavy with G68E, R110D
chain: B1 chain
light: B1 light
notes: one-arm antibody
B8: CE115HA000 G98A one-arm antibody (antibody, human IgG1, kappa, L234A L235A, N297A, name in Kabat numbering)
heavy: B1 heavy with G104A, R110D
chain: B1 chain
light: B1 light
notes: one-arm antibody
B9: CE115HA000 G98D one-arm antibody (antibody, human IgG1, kappa, L234A L235A, N297A, name in Kabat numbering)
heavy: B1 heavy with G104D, R110D
chain: B1 chain
light: B1 light
notes: one-arm antibody
B10: CE115HA000 G98H one-arm antibody (antibody, human IgG1, kappa, L234A L235A, N297A, name in Kabat numbering)
heavy: B1 heavy with G104H, R110D
chain: B1 chain
light: B1 light
notes: one-arm antibody
B11: CE115HA000 G98K one-arm antibody (antibody, human IgG1, kappa, L234A L235A, N297A, name in Kabat numbering)
heavy: B1 heavy with G104K, R110D
chain: B1 chain
light: B1 light
notes: one-arm antibody
B12: CE115HA000 G98P one-arm antibody (antibody, human IgG1, kappa, L234A L235A, N297A, name in Kabat numbering)
heavy: B1 heavy with G104P, R110D
chain: B1 chain
light: B1 light
notes: one-arm antibody
B13: CE115HA000 G98Q one-arm antibody (antibody, human IgG1, kappa, L234A L235A, N297A, name in Kabat numbering)
heavy: B1 heavy with G104Q, R110D
chain: B1 chain
light: B1 light
notes: one-arm antibody
B14: CE115HA000 G98R one-arm antibody (antibody, human IgG1, kappa, L234A L235A, N297A, name in Kabat numbering)
heavy: B1 heavy with G104R, R110D
chain: B1 chain
light: B1 light
notes: one-arm antibody
B15: CE115HA000 G98S one-arm antibody (antibody, human IgG1, kappa, L234A L235A, N297A, name in Kabat numbering)
heavy: B1 heavy with G104S, R110D
chain: B1 chain
light: B1 light
notes: one-arm antibody
B16: CE115HA000 G98T one-arm antibody (antibody, human IgG1, kappa, L234A L235A, N297A, name in Kabat numbering)
heavy: B1 heavy with G104T, R110D
chain: B1 chain
light: B1 light
notes: one-arm antibody
B17: CE115HA000 G98Y one-arm antibody (antibody, human IgG1, kappa, L234A L235A, N297A, name in Kabat numbering)
heavy: B1 heavy with G104Y, R110D
chain: B1 chain
light: B1 light
notes: one-arm antibody
B18: CE115HA000 G100bD one-arm antibody (antibody, human IgG1, kappa, L234A L235A, N297A, name in Kabat numbering)
heavy: B1 heavy with G108D, R110D
chain: B1 chain
light: B1 light
notes: one-arm antibody
B19: CE115HA000 G100bE one-arm antibody (antibody, human IgG1, kappa, L234A L235A, N297A, name in Kabat numbering)
heavy: B1 heavy with G108E, R110D
chain: B1 chain
light: B1 light
notes: one-arm antibody
B20: CE115HA000 G100bF one-arm antibody (antibody, human IgG1, kappa, L234A L235A, N297A, name in Kabat numbering)
heavy: B1 heavy with G108F, R110D
chain: B1 chain
light: B1 light
notes: one-arm antibody
B21: CE115HA000 G100bL one-arm antibody (antibody, human IgG1, kappa, L234A L235A, N297A, name in Kabat numbering)
heavy: B1 heavy with G108L, R110D
chain: B1 chain
light: B1 light
notes: one-arm antibody
B22: CE115HA000 G100bS one-arm antibody (antibody, human IgG1, kappa, L234A L235A, N297A, name in Kabat numbering)
heavy: B1 heavy with G108S, R110D
chain: B1 chain
light: B1 light
notes: one-arm antibody
B23: CE115HA000 G100bY one-arm antibody (antibody, human IgG1, kappa, L234A L235A, N297A, name in Kabat numbering)
heavy: B1 heavy with G108Y, R110D
chain: B1 chain
light: B1 light
notes: one-arm antibody
B24: CE115HA000 H96G one-arm antibody (antibody, human IgG1, kappa, L234A L235A, N297A, name in Kabat numbering)
heavy: B1 heavy with H102G, R110D
chain: B1 chain
light: B1 light
notes: one-arm antibody
B25: CE115HA000 H96K one-arm antibody (antibody, human IgG1, kappa, L234A L235A, N297A, name in Kabat numbering)
heavy: B1 heavy with H102K, R110D
chain: B1 chain
light: B1 light
notes: one-arm antibody
B26: CE115HA000 H96L one-arm antibody (antibody, human IgG1, kappa, L234A L235A, N297A, name in Kabat numbering)
heavy: B1 heavy with H102L, R110D
chain: B1 chain
light: B1 light
notes: one-arm antibody
B27: CE115HA000 H96Q one-arm antibody (antibody, human IgG1, kappa, L234A L235A, N297A, name in Kabat numbering)
heavy: B1 heavy with H102Q, R110D
chain: B1 chain
light: B1 light
notes: one-arm antibody
B28: CE115HA000 H96R one-arm antibody (antibody, human IgG1, kappa, L234A L235A, N297A, name in Kabat numbering)
heavy: B1 heavy with H102R, R110D
chain: B1 chain
light: B1 light
notes: one-arm antibody
B29: CE115HA000 H96S one-arm antibody (antibody, human IgG1, kappa, L234A L235A, N297A, name in Kabat numbering)
heavy: B1 heavy with H102S, R110D
chain: B1 chain
light: B1 light
notes: one-arm antibody
B30: CE115HA000 H96Y one-arm antibody (antibody, human IgG1, kappa, L234A L235A, N297A, name in Kabat numbering)
heavy: B1 heavy with H102Y, R110D
chain: B1 chain
light: B1 light
notes: one-arm antibody
B31: CE115HA000 K64A one-arm antibody (antibody, human IgG1, kappa, L234A L235A, N297A, name in Kabat numbering)
heavy: B1 heavy with K67A, R110D
chain: B1 chain
light: B1 light
notes: one-arm antibody
B32: CE115HA000 K64D one-arm antibody (antibody, human IgG1, kappa, L234A L235A, N297A, name in Kabat numbering)
heavy: B1 heavy with K67D, R110D
chain: B1 chain
light: B1 light
notes: one-arm antibody

Biological target: T1, CD3 epsilon homodimer protein (UniProt P07766 23-126)
T1 construct: Construct of the homodimer protein is not described; also called CD3 (CD3 epsilon)
T1 sequence (P07766 23-126): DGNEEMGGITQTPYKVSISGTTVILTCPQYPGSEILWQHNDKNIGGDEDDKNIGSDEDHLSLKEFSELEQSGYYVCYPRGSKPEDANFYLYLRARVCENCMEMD
Assay: SPR (Biacore T200), CD3 epsilon homodimer on CM4 chip, one-arm antibody as analyte; ratio to unaltered CE115HA000;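 further: surface plasmon resonance run at 25 °C with HBS-EP+ as running buffer, CD3 epsilon homodimer attached by amine coupling, antibody passed over as analyte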

Binder	KD ratio (KD value of CE115HA000/KD value of the altered form)
B1	5.66
B2	0.91
B3	0.62
B4	1.18
B5	0.97
B6	0.61
B7	0.61
B8	0.98
B9	2.36
B10	1.14
B11	4.85
B12	0.88
B13	1.04
B14	4.69
B15	0.98
B16	0.93

Binder	KD ratio (KD value of CE115HA000/KD value of the altered form)
B17	2.75
B18	6.25
B19	7.29
B20	4.37
B21	5.84
B22	1.25
B23	51.4
B24	0.8
B25	1.56
B26	3.14
B27	1.36
B28	1.59
B29	1.15
B30	6.67
B31	0.81
B32	0.76
